From publication PMC5910400 come the findings set out here.

This assay deals with CXCL8 (human).

Substance “P1156:G4S:P1243 two-warhead evasin (from UniProt V5HBW0;A0A0C9S461)” yielded a mean IC50 (three biological replicates) of inhibition of primary human granulocyte migration induced by the EC80 dose of CXCL8 of 7.5e-09 M. On to “P1243:G4S:P1156 two-warhead evasin (from UniProt A0A0C9S461;V5HBW0)”, for which the mean IC50 (three biological replicates) of inhibition of primary human granulocyte migration induced by the EC80 dose of CXCL8 was 3.8e-08 M.
